Blank lines part the entries; values can stand above or below the binder they belong to.
Tests used:
[1] = biological target: T1, HLA-A02.01 class I MHC molecule (prepared complex) (human); test: dissociation of peptide-MHC-I complex at 37 C, 125I-labelled b2m, scintillation; settings: remark: other sources report otherwise
[2] = biological target: T2, HLA-A24.02 class I MHC molecule (prepared complex) (human); test: as above; settings: remark: other sources report otherwise
[3] = biological target: T1, HLA-A02.01 class I MHC molecule …; test: displacement of radiolabeled reference peptide from class I MHC, gel filtration; 'Affinity (nM)'; settings: remark: other sources report otherwise
[4] = biological target: T2, HLA-A24.02 class I MHC molecule …; test: as above; settings: remark: other sources report otherwise
[5] = biological target: HLA class I molecule A02.01; test: pMHC-I dissociation half-life, 125I-b2m; settings: remark: other sources report otherwise
[6] = biological target: HLA class I molecule B08.01; test: pMHC-I dissociation half-life, 125I-b2m; settings: remark: other sources report otherwise
[7] = biological target: HLA class I molecule A24.02; test: pMHC-I dissociation half-life, 125I-b2m; settings: remark: other sources report otherwise
[8] = biological target: HLA class I molecule A02.01; test: competition with radiolabeled reference peptide on purified MHC I; settings: remark: other sources report otherwise
[9] = biological target: HLA class I molecule A24.02; test: as above; settings: remark: other sources report otherwise
[10] = biological target: T3, HLA-B07.02 class I MHC molecule (prepared complex) (human); test: dissociation of peptide-MHC-I complex at 37 C, 125I-labelled b2m, scintillation; settings: remark: other sources report otherwise
[11] = biological target: T3, HLA-B07.02 class I MHC molecule …; test: displacement of radiolabeled reference peptide from class I MHC, gel filtration; 'Affinity (nM)'; settings: remark: other sources report otherwise
[12] = biological target: HLA-A02:01 class I MHC molecule (human); test: competition with a radiolabeled reference peptide for purified MHC I, gel filtration; 'Affinity (nM)'; settings: remark: other sources report otherwise
[13] = biological target: HLA-A02:01 class I MHC molecule (human); test: pMHC-I dissociation at 37 C, 125I-labeled b2m, scintillation counts; settings: remark: other sources report otherwise
[14] = biological target: HLA class I molecule B07.02; test: pMHC-I dissociation half-life, 125I-b2m; settings: remark: other sources report otherwise
[15] = biological target: HLA class I molecule B07.02; test: competition with radiolabeled reference peptide on purified MHC I; settings: remark: other sources report otherwise
[16] = biological target: T4, HLA-A01.01 class I MHC molecule (prepared complex) (human); test: dissociation of peptide-MHC-I complex at 37 C, 125I-labelled b2m, scintillation; settings: remark: other sources report otherwise
[17] = biological target: T4, HLA-A01.01 class I MHC molecule …; test: displacement of radiolabeled reference peptide from class I MHC, gel filtration; 'Affinity (nM)'; settings: remark: other sources report otherwise
HLA-A01.01 (human) [18] = test: competition vs radiolabeled reference peptide on purified MHC I, gel filtration; settings: remark: other sources report otherwise
HLA-B07.02 (human) [19] = test: competition with radiolabeled reference peptide, purified MHC I; settings: remark: other sources report otherwise
HLA-B07.02 (human) [20] = test: pMHC-I dissociation half-life, 125I-b2m; settings: remark: other sources report otherwise
HLA-B08.01 (human) = test: competition with radiolabeled reference peptide, purified MHC I
[21] = biological target: HLA class I molecule B08.01; test: competition with radiolabeled reference peptide on purified MHC I; settings: remark: other sources report otherwise
HLA-A03.01 (human) = test: competition with radiolabeled reference peptide, purified MHC I; settings: remark: other sources report otherwise
HLA-A02.01 (human) [22] = test: as above; settings: remark: other sources report otherwise
[23] = biological target: HLA-B07:02 class I MHC molecule (human); test: pMHC-I dissociation at 37 C, 125I-labeled b2m, scintillation counts; settings: remark: other sources report otherwise
HLA-A01.01 (human) [24] = test: competition with radiolabeled reference peptide, purified MHC I; settings: remark: other sources report otherwise
HLA-A01.01 (human) [25] = test: pMHC-I dissociation half-life, 125I-b2m; settings: remark: other sources report otherwise
HLA-A02.01 (human) [26] = test: pMHC-I dissociation half-life, 125I-b2m; settings: remark: other sources report otherwise
HLA-A01.01 (human) [27] = test: pMHC-I complex dissociation at 37 C, 125I-b2m, half-life; settings: remark: other sources report otherwise
HLA-A02.01 (human) [28] = test: as above; settings: remark: other sources report otherwise
HLA-A02.01 (human) [29] = test: competition vs radiolabeled reference peptide on purified MHC I, gel filtration; settings: remark: other sources report otherwise
[30] = biological target: HLA-B07:02 class I MHC molecule (human); test: competition with a radiolabeled reference peptide for purified MHC I, gel filtration; 'Affinity (nM)'; settings: remark: other sources report otherwise

B2: … (peptide)
peptide: LSLMPAHWSI
- Stability (T1/2 (h)) [5]: 0.4 h
- Stability (T1/2 (h)) [6]: 0 h
- Stability (T1/2 (h)) [7]: 0 h
- IC50 [8]: 164 nM
- IC50 [9]: 12400 nM

B6: … (peptide)
peptide: YVMAYVMAGV
- Stability (T1/2 (h)) [5]: 20.9 h
- Stability (T1/2 (h)) [6]: 0 h
- Stability (T1/2 (h)) [14]: 0 h
- IC50 [8]: 57 nM
- IC50 [15]: 52600 nM

B7: EGFR_T790M peptide … (peptide)
peptide: CLTSTVQLIM
- Stability (half-life (hr.)) [16]: 0 min
- Stability (half-life (hr.)) [1]: 0 min
- IC50 [17]: 8280 nM
- IC50 [3]: 537 nM

B9: … (peptide)
peptide: LPRKPTRAA
- IC50 (HLA-B07.02 (human) [19]): 8 nM
- Stability (T1/2 (h)) (HLA-B07.02 (human) [20]): 5.5 h

B14: … (peptide)
peptide: MLLRLNLRKM
- IC50 (HLA-A03.01 (human)): 117 nM
- IC50 (HLA-A02.01 (human) [22]): 2510 nM

B15: … (peptide)
peptide: SLGNHLCPL
- Stability (T1/2 (h)) [5]: 3.5 h
- Stability (T1/2 (h)) [6]: 0.5 h
- Stability (T1/2 (h)) [14]: 0 h
- IC50 [21]: 6 nM
- IC50 [15]: 2590 nM

B16: EGFR_T790M peptide … (peptide)
peptide: VQLIMQLMPF
- Stability (half-life (hr.)) [1]: 0 min
- Stability (half-life (hr.)) [2]: 0 h
- IC50 [3]: 4940 nM
- IC50 [4]: 4100 nM

B18: BTK_C481S peptide … (peptide)
peptide: MANGSLLNYL
- IC50 [12]: 1010 nM
- Stability (half-life (hr.)) [13]: 0 min
- Stability (half-life (hr.)) [23]: 0 h

B21: … (peptide)
peptide: MLTDSLFLPI
- IC50 (HLA-A01.01 (human) [24]): 7670 nM
- Stability (T1/2 (h)) (HLA-A01.01 (human) [25]): 0 h
- Stability (T1/2 (h)) (HLA-A02.01 (human) [26]): 1 h

B23: … (peptide)
peptide: YVMAYVMAG
- Stability (T1/2 (h)) [5]: 2.5 h
- Stability (T1/2 (h)) [6]: 1.2 h
- Stability (T1/2 (h)) [14]: 0 h
- IC50 [8]: 11500 nM
- IC50 [15]: 170 nM

Further lines, results first:

- Stability (half-life (hr.)) [1]: 30.9 min
- Stability (half-life (hr.)) [2]: 0 h
- IC50 [3]: 653 nM
- IC50 [4]: 14100 nM
B1: EGFR_T790M peptide … (peptide)
peptide: IMQLMPFGCL

- Stability (half-life (hr.)) [10]: 0 h
- Stability (half-life (hr.)) [1]: 22.1 min
- IC50 [11]: 1590 nM
- IC50 [3]: 116 nM
B3: EGFR_T790M peptide … (peptide)
peptide: MQLMPFGCL

- IC50 [12]: 4000 nM
- Stability (half-life (hr.)) [13]: 0 min
B4: BTK_C481S peptide … (peptide)
peptide: YMANGSLLN

- Stability (T1/2 (h)) [5]: 1 h
- Stability (T1/2 (h)) [6]: 0 h
- Stability (T1/2 (h)) [7]: 0 h
- IC50 [8]: 62 nM
- IC50 [9]: 8520 nM
B5: … (peptide)
peptide: SQIMSLWGL

- IC50 (HLA-A01.01 (human) [18]): 2890 nM
B8: … (peptide)
peptide: LTSTVQLIM

- IC50 (HLA-B08.01 (human)): 0.6 nM
B10: LKKLRSPL (peptide)
peptide: LKKLRSPL

- Stability (T1/2 (h)) [5]: 0.6 h
- Stability (T1/2 (h)) [6]: 0 h
- IC50 [8]: 117 nM
- IC50 [21]: 872 nM
B11: … (peptide)
peptide: YLGNHMNIA

- Stability (half-life (hr.)) [16]: 6.22 min
- IC50 [17]: 2890 nM
B12: EGFR, T790M peptide … (peptide)
peptide: LTSTVQLIM

- Stability (T1/2 (h)) [5]: 5 h
- Stability (T1/2 (h)) [6]: 0 h
- Stability (T1/2 (h)) [7]: 0.4 h
- Stability (T1/2 (h)) [14]: 0 h
- IC50 [8]: 48 nM
- IC50 [9]: 633 nM
B13: … (peptide)
peptide: SLMPAHWSI

- Stability (half-life (hr.)) [1]: 22.9 min
- Stability (half-life (hr.)) [2]: 0 h
- IC50 [3]: 16.3 nM
- IC50 [4]: 18900 nM
B17: EGFR_T790M peptide … (peptide)
peptide: MQLMPFGCLL

- Stability (T1/2 (h)) [5]: 0 h
- Stability (T1/2 (h)) [6]: 0 h
- IC50 [8]: 225 nM
- IC50 [21]: 3180 nM
B19: … (peptide)
peptide: FELLSTPPL

- IC50 (HLA-A01.01 (human) [24]): 14400 nM
- IC50 (HLA-A02.01 (human) [22]): 40 nM
- Stability (T1/2 (h)) (HLA-A01.01 (human) [25]): 0 h
- Stability (T1/2 (h)) (HLA-A02.01 (human) [26]): 0.4 h
B20: … (peptide)
peptide: WMTETLFDIV

- Stability (T1/2 (h)) (HLA-A01.01 (human) [27]): 0 h
- Stability (T1/2 (h)) (HLA-A02.01 (human) [28]): 0 h
- IC50 (HLA-A02.01 (human) [29]): 716 nM
B22: … (peptide)
peptide: CLTSTVQLIM

- IC50 [12]: 67.7 nM
- IC50 [30]: 866 nM
- Stability (half-life (hr.)) [13]: 183 min
- Stability (half-life (hr.)) [23]: 0 h
B24: BTK_C481S peptide … (peptide)
peptide: SLLNYLREM

— US20220282217A1, “COMPOSITIONS AND METHODS FOR PREPARING T CELL COMPOSITIONS AND USES THEREOF” (priority 2019, published 2022)
